The values below come from US20240116985A1 (published 2024).

The target in assay [1] is T1, full-length beta-Catenin (Uniprot ID P35222) (Homo sapiens (Human), UniProt P35222 1-781).
T1 construct: also called bCat; B-Catenin
T1 sequence: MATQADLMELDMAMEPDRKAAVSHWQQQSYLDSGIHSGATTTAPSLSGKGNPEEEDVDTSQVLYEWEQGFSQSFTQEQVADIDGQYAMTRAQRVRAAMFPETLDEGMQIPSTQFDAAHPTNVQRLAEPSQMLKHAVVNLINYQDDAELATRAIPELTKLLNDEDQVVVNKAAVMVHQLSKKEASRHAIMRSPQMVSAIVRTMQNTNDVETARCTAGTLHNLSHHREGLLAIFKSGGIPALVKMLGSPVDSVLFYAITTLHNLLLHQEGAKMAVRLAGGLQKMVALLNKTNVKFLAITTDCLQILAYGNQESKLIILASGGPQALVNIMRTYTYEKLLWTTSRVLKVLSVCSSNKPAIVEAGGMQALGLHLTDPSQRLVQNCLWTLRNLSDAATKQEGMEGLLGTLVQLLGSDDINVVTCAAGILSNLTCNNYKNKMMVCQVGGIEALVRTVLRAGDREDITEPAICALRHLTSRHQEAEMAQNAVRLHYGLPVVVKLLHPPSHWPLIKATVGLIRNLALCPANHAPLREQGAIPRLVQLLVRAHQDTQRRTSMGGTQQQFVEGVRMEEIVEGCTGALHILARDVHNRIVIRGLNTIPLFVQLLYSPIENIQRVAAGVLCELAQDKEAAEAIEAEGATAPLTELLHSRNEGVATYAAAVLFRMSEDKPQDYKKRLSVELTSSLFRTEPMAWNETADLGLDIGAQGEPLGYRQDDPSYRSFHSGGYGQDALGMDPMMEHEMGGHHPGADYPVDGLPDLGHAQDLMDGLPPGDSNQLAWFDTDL
Briefly: fluorescence polarization competition; peptide titrated against 10 nM full-length beta-catenin + 10 nM 5FAM-TCF4(10-53). The procedure:
(§1) The plate was incubated protected from light for 60 minutes at 20° C. prior to read. Reads were performed on a CLARIOstar plate reader (BMG Labtech) in duplicate, and data were fitted to a 1:1 binding model with hill slope using an in-house script. All provided concentrations are final concentrations.
For orientation: Fluorescence polarisation rises when a labelled molecule tumbles more slowly, as on binding a larger partner.

Assay [2] has as its target T2, B-cat-Halo (beta-catenin HaloTag NanoBRET construct expressed in HEK293 cells) (UniProt P35222 1-781, HaloTag NanoBRET 618 Ligand bound to the HaloTag).
T2 sequence (looked up): T1 sequence
As to the kind of experiment: cell-based or functional assay.

Assay [3] addresses T3, full-length beta-Catenin (Uniprot ID P35222) (Homo sapiens (Human), UniProt P35222 1-781).
T3 construct: Any tags on the recombinant protein are not described for the FP assay; also called bCat; B-Catenin
T3 sequence: T1 sequence
Briefly: fluorescence polarization competition; displacement of 5FAM-TCF4(10-53) from full-length beta-catenin. The procedure, abridged: (§2)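 Readings followed a light-protected 60-minute incubation at 20° C. Each read was done in duplicate. Curves were fit with a 1:1 binding model including hill slope, and stated concentrations are final.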

Another assay concerns the target T4, beta-catenin (Homo sapiens (Human), UniProt P35222 1-781).
T4 construct: The FP protocol says full-length beta-Catenin (Uniprot ID P35222); also called full-length beta-Catenin; bCat
T4 sequence: T1 sequence
Briefly: fluorescence polarization competition; full-length beta-catenin with 5FAM-TCF4(10-53) probe as competitor. The procedure, abridged: as §2

The next assay has as its target T5, B-cat-Halo (UniProt P35222 1-781).
T5 sequence (looked up): T1 sequence
Briefly: cell-based or functional assay.

Assay [4] has as its target T6, full-length beta-Catenin (Uniprot ID P35222) (Homo sapiens (Human), UniProt P35222 1-781).
T6 construct: Tags are not described; Also used here as the target of the DLD1 TCF reporter read-out (endogenous beta-catenin in DLD1 cells); also called bCat; B-Catenin
T6 sequence: T1 sequence
As to the kind of experiment: fluorescence polarization competition; full-length beta-catenin with 5FAM-TCF4(10-53) probe, peptide titrated. Here is the method: as §1

Starred links: 1 amine or outer side, 2 acyl side, 3 side chain; linkers in the order of their positions; H or OH if unused. Positions of bridges follow the written chain, without caps; N, C: chain ends. Non-standard residues stand in square brackets, D forms with d. Primed or numbered codes have the meaning given here. PyrS2″ = (S)-3-amino-1-((pent-4-en-1-yloxy)carbonyl)pyrrolidine-3-carboxylic acid (stapling residue), C=CCCCOC(=O)N1CC[C@@](N[*:1])(C(=O)[*:2])C1; B5(16) = 2-amino-2-(pent-4-en-1-yl)hept-6-enoic acid = 2,2-bis(4-pentenyl)glycine (stitching residue), C=CCCCC(CCCC=C)(N[*:1])C(=O)[*:2]; B5(4) = 2,2-bis(4-pentenyl)glycine = 2-amino-2-(pent-4-en-1-yl)hept-6-enoic acid (stitching residue), C=CCCCC(CCCC=C)(N[*:1])C(=O)[*:2]; B5(5) = 2,2-bis(4-pentenyl)glycine, 2-amino-2-(pent-4-en-1-yl)hept-6-enoic acid (stitching residue), C=CCCCC(CCCC=C)(N[*:1])C(=O)[*:2]; PyrS2 = (S)-3-amino-1-((pent-4-en-1-yloxy)carbonyl)pyrrolidine-3-carboxylic acid, C=CCCCOC(=O)N1CC[C@@](N[*:1])(C(=O)[*:2])C1; B5(19) = 2-amino-2-(pent-4-en-1-yl)hept-6-enoic acid (bis(4-pentenyl)glycine), C=CCCCC(CCCC=C)(N[*:1])C(=O)[*:2]; Phe(4-CN) = N#Cc1ccc(C[C@H](N)C(=O)O)cc1; Phe(2-Cl) = N[C@@H](Cc1ccccc1Cl)C(=O)O; Bta = N[C@@H](Cc1csc2ccccc12)C(=O)O; αAllylPro = C=CC[C@@]1(C(=O)O)CCCN1; S8 = C=CCCCCCC[C@](C)(N)C(=O)O

B1: I-355 (peptide)
peptide: XDAXDDAAFVXAWQ
modifications: not fully specified; N-terminal Ac; PL3 at 1, B5 at 4, S8 at 11 (staples 1-4 and 4-11 by olefin metathesis); C-terminal NH2
notes: Stapled peptide; also called Ac-PL3-Asp-Ala-B5-Asp-Asp-Ala-Ala-Phe-Val-S8-Ala-Trp-Gln-NH2
Broadly, the IC50 is the point on the concentration scale where inhibition reaches its midpoint. With B1, the IC50 in assay [1] came out at 5000 nM.

B2: I-357 (peptide)
peptide: XDAXDDAAFVXFAQ
modifications: not fully specified; N-terminal Ac; PL3 at 1, B5 at 4, S8 at 11 (staples 1-4 and 4-11 by olefin metathesis); C-terminal NH2
notes: Stapled peptide; also called Ac-PL3-Asp-Ala-B5-Asp-Asp-Ala-Ala-Phe-Val-S8-Phe-Ala-Gln-NH2
Take B2: the IC50 in assay [1] is 5000 nM.

B3: I-1526: Ac-PL3-Asp-Ser-B5-Asp-Glu-Ala-Ala-Phe-Gln-S8-Phe-BztA-Gln-NH2 (peptide)
peptide: Ac-[αAllylPro]DS[B5(5)]DEAAFQ[S8]F[Bta]Q-NH2
modifications: staple 1-4, 4-11; also: staple isomer, earlier eluting HPLC peak
notes: Stapled peptide composition; It has the same description as I-1527 and is the staple isomer composition of the earlier eluting HPLC peak
In the case of B3, the “NanoBRET Abs IC50” value in assay [2] was above 20000 nM. This molecule also had an IC50 in assay [3] of 84 nM.

B4: I-1528: Ac-PL3-Asp-Ser-B5-Asp-Glu-Ala-Ala-Phe-Leu-S8-Phe-BztA-Gln-NH2 (peptide)
peptide: Ac-[αAllylPro]DS[B5(5)]DEAAFL[S8]F[Bta]Q-NH2
modifications: staple 1-4, 4-11
notes: Stapled peptide composition; Staple olefins are retained
With B4, the “NanoBRET Abs IC50” value in assay [2] is 31400 nM. This molecule gave an IC50 in assay [3] of 102 nM.

B5: I-356 (peptide)
peptide: XDAXDDAAFVXAWQ
modifications: not fully specified; N-terminal Ac; PL3 at 1, B5 at 4, S8 at 11 (staples 1-4 and 4-11 by olefin metathesis); C-terminal NH2
notes: as for B1
Take B5: in assay [1], the IC50 is 5000 nM.

In general, EC50 refers to the concentration at which the effect is half-maximal. Higher therefore signals lower potency in that assay. Ac-[αAllylPro]DL[B5(4)]DDAAFL[PyrS2″][Phe(2-Cl)][Bta]L-NH2 (staple 1-4, 4-11; also: staple isomer composition of earlier HPLC peak, stapled peptide) [I-1418]: the EC50 with beta-catenin came to 106 nM. Still for that read-out and setting: under Ac-[αAllylPro]DN[B5(4)]DDAAFL[PyrS2″][Phe(2-Cl)][Bta]L-NH2 (staple 1-4, 4-11, stapled peptide) [I-1422] stands 388 nM.

In the case of Ac-[αAllylPro]DT[B5(4)]DDAAFL[PyrS2][Phe(2-Cl)][Bta]L-NH2 (staple 1-4, 4-11, stapled peptide) [I-1424], in the assay with beta-catenin, it took 235 nM to reach a half-maximal effect (EC50). Ac-[αAllylPro]DL[B5(19)]DDAAFL[PyrS2]F[Bta]Q-NH2 (staple 1-4, 4-11, stapled peptide) [I-1402] gave an EC50 in the assay with beta-catenin of 9 nM. In turn, Ac-[αAllylPro]DS[B5(4)]DDAAFL[PyrS2][Phe(2-Cl)][Bta]L-NH2 (staple 1-4, 4-11, stapled peptide) [I-1423] displayed an EC50 with beta-catenin of 389 nM.

B6: I-359 (peptide)
peptide: Ac-[αAllylPro]DA[B5(19)]DDAAFV[S8][Phe(4-CN)][Bta]Q-NH2
modifications: staple 1-4, 4-11
notes: Stapled peptide; also called Ac-PL3-Asp-Ala-B5-Asp-Asp-Ala-Ala-Phe-Val-S8-4CNF-BztA-Gln-NH2
As for B6, the IC50 in assay [1] stood at 5000 nM.

B7: I-1041 (peptide)
peptide: Ac-[αAllylPro]DF[B5(16)]DDAAFN[PyrS2″][Phe(2-Cl)][Bta]Q-NH2
modifications: staple 1-4, 4-11
notes: also called Ac-PL3-Asp-Phe-B5-Asp-Asp-Ala-Ala-Phe-Asn-PyrS2-2C1F-BztA-Gln-NH2
Regarding B7, the “NanoBRET Abs IC50” value in the assay with B-cat-Halo is above 20000 nM. In assay [4], the IC50 is 8 nM.

B8: I-1049 (peptide)
peptide: Ac-[αAllylPro]DF[B5(4)]DDAAFT[PyrS2″][Phe(2-Cl)][Bta]S-NH2
modifications: staple 1-4, 4-11
notes: also called Ac-PL3-Asp-Phe-B5-Asp-Asp-Ala-Ala-Phe-Thr-PyrS2-2C1F-BztA-Ser-NH2
In assay [4], B8 displayed an IC50 of 6 nM.
